{"source": "paper PMC9696605", "about": "(Viruses, 2022)", "origin": "cited, not measured here", "target": "Fyn-SH3 (Homo sapiens, UniProt P06241)", "sequence (P06241 with tags, fused parts or gaps)": "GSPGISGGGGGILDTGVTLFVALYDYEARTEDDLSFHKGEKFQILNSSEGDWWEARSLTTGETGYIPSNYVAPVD", "conditions": "phosphorylated MBP", "data": [{"molecule": "phospho-MBP: phosphorylated myelin basic protein (protein, UniProt P02687 1-169, looked up, phosphorylated, phosphorylated myelin basic protein) Myelin basic protein: AAQKRPSQRSKYLASASTMDHARHGFLPRHRDTGILDSLGRFFGSDRGAPKRGSGKDGHHAARTTHYGSLPQKAQGHRPQDENPVVHFFKNIVTPRTPPPSQGKGRGLSLSRFSWGAEGQKPGFGYGGRASDYKSAHKGLKGHDAQGTLSKIFKLGGRDSRSGSPMARR", "values": [{"measurement": "Effect of MBP phosphorylation on interaction with Fyn-SH3", "value": "phosphorylation weakens the interaction"}]}]}
